This data set deals with the molecule itself. The data set can be described thus: cryo-EM structure; FAS (0.3 mg/ml, buffer 100 mM sodium phosphate pH 6.5) incubated with 1 mM NADPH and 1 mM malonyl-CoA for 5 min, on hydrophilized graphene-coated Quantifoil grids; D3 symmetry applied; 3.1 Å.

B1: yeast fatty acid synthase subunit α (FAS2) (enzyme, S. cerevisiae)
chain: MKPEVEQELAHILLTELLAYQFASPVRWIETQDVFLKDFNTERVVEIGPSPTLAGMAQRTLKNKYESYDAALSLHREILCYSKDAKEIYYTPDPSELAAKEEPAKEEAPAPTPAASAPAPAAAAPAPVAAAAPAAAAAEIADEPVKASLLLHVLVAHKLKKSLDSIPMSKTIKDLVGGKSTVQNEILGDLGKEFGTTPEKPEETPLEELAETFQDTFSGALGKQSSSLLSRLISSKMPGGFTITVARKYLQTRWGLPSGRQDGVLLVALSNEPAARLGSEADAKAFLDSMAQKYASIVGVDLSSAASASGAAGAGAAAGAAMIDAGALEEITKDHKVLARQQLQVLARYLKMDLDNGERKFLKEKDTVAELQAQLDYLNAELGEFFVNGVATSFSRKKARTFDSSWNWAKQSLLSLYFEIIHGVLKNVDREVVSEAINIMNRSNDALIKFMEYHISNTDETKGENYQLVKTLGEQLIENCKQVLDVDPVYKDVAKPTGPKTAIDKNGNITYSEEPREKVRKLSQYVQEMALGGPITKESQPTIEEDLTRVYKAISAQADKQDISSSTRVEFEKLYSDLMKFLESSKEIDPSQTTQLAGMDVEDALDKDSTKEVASLPNKSTISKTVSSTIPRETIPFLHLRKKTPAGDWKYDRQLSSLFLDGLEKAAFNGVTFKDKYVLITGAGKGSIGAEVLQGLLQGGAKVVVTTSRFSKQVTDYYQSIYAKYGAKGSTLIVVPFNQGSKQDVEALIEFIYDTEKNGGLGWDLDAIIPFAAIPEQGIELEHIDSKSEFAHRIMLTNILRMMGCVKKQKSARGIETRPAQVILPMSPNHGTFGGDGMYSESKLSLETLFNRWHSESWANQLTVCGAIIGWTRGTGLMSANNIIAEGIEKMGVRTFSQKEMAFNLLGLLTPEVVELCQKSPVMADLNGGLQFVPELKEFTAKLRKELVETSEVRKAVSIETALEHKVVNGNSADAAYAQVEIQPRANIQLDFPELKPYKQVKQIAPAELEGLLDLERVIVVTGFAEVGPWGSARTRWEMEAFGEFSLEGCVEMAWIMGFISYHNGNLKGRPYTGWVDSKTKEPVDDKDVKAKYETSILEHSGIRLIEPELFNGYNPEKKEMIQEVIVEEDLEPFEASKETAEQFKHQHGDKVDIFEIPETGEYSVKLLKGATLYIPKALRFDRLVAGQIPTGWNAKTYGISDDIISQVDPITLFVLVSVVEAFIASGITDPYEMYKYVHVSEVGNCSGSGMGGVSALRGMFKDRFKDEPVQNDILQESFINTMSAWVNMLLISSSGPIKTPVGACATSVESVDIGVETILSGKARICIVGGYDDFQEEGSFEFGNMKATSNTLEEFEHGRTPAEMSRPATTTRNGFMEAQGAGIQIIMQADLALKMGVPIYGIVAMAATATDKIGRSVPAPGKGILTTAREHHSSVKYASPNLNMKYRKRQLVTREAQIKDWVENELEALKLEAEEIPSEDQNEFLLERTREIHNEAESQLRAAQQQWGNDFYKRDPRIAPLRGALATYGLTIDDLGVASFHGTSTKANDKNESATINEMMKHLGRSEGNPVIGVFQKFLTGHPKGAAGAWMMNGALQILNSGIIPGNRNADNVDKILEQFEYVLYPSKTLKTDGVRAVSITSFGFGQKGGQAIVVHPDYLYGAITEDRYNEYVAKVSAREKSAYKFFHNGMIYNKLFVSKEHAPYTDELEEDVYLDPLARVSKDKKSGSLTFNSKNIQSKDSYINANTIETAKMIENMTKEKVSNGGVGVDVELITSINVENDTFIERNFTPQEIEYCSAQPSVQSSFAGTWSAKEAVFKSLGVKSLGGGAALKDIEIVRVNKNAPAVELHGNAKKAAEEAGVTDVKVSISHDDLQAVAVAVSTKK
modifications: additional density at Ser1440 suggesting phosphorylation
notes: fatty acid synthase subunit α, S. cerevisiae, encoded by FAS2 on a pRS shuttle vector; holds the PPT domain at its C-terminus; this follows from DM4 holding the PPT domain, which it places in subunit α
B1: the binding result is “binds”.

For the origin of these results see article PMC7055384, “The resolution revolution in cryoEM requires high-quality sample preparation: a rapid pipeline to a high-resolution map of yeast fatty acid synthase” (IUCrJ, 2020).
